To fix the notation:
B2: DotZ (natural protein)
chain: MDEIKKDDELSQWLSTYGTITAERILGRYNISLPQDEILEAINIPSSFYRHLLQIPLKNVLNGIVIQQASDYHVYAQKLLIDYLLSGESSKEPDSQGAGTRESLEDERQRLVQLGDEFHKLELEQDNLIASSQASLMKISIDWNTKLETTLSKLNSLYKNTNSKIKKNAIRKALIKAFIHCDLVKDQSQKNKYQLIDKLNQTLAVSVGAELKESILTNLSELFQILEALNTKLDEFTDRTNHLSQQAKSFRTQFYEVILRIIELIKLLPEYKIDPAQDAINREPLYFDRTIGER
B3: DotY (natural protein)
chain: MPKYTLPTRDALLKAMQVGETSIEAAEYMATRFEQILTKAKLLPECNDMLEKIKEYAQFVKFKLLSSAQVWSGQERPTSDYQNTQENKAEFLASHLEGLPSGLKLEVAIGDDAKILRGFSSNGKMVEGDQLKTMDGLLEGWLAKNSLAISGGAVVKIDNTGNQTKVDPQEIRQLINDSEKGVAKYFADKGVGMEVAQRTYQEPKALETKREEIRQEIESGAEAPTTQSIR

The assay “DotY” concerns the target B3. As to the kind of experiment: cryo-EM structure. The conditions noted are these: both partners purified.
For the assay “DotZ”, the target named is B2. As to the kind of experiment: cryo-EM structure. The following applies: both partners purified.
Assay [1] has as its target T1, DotL with a C-terminal Strep-tag (Legionella pneumophila, UniProt Q5ZYC6 1-783).
T1 sequence: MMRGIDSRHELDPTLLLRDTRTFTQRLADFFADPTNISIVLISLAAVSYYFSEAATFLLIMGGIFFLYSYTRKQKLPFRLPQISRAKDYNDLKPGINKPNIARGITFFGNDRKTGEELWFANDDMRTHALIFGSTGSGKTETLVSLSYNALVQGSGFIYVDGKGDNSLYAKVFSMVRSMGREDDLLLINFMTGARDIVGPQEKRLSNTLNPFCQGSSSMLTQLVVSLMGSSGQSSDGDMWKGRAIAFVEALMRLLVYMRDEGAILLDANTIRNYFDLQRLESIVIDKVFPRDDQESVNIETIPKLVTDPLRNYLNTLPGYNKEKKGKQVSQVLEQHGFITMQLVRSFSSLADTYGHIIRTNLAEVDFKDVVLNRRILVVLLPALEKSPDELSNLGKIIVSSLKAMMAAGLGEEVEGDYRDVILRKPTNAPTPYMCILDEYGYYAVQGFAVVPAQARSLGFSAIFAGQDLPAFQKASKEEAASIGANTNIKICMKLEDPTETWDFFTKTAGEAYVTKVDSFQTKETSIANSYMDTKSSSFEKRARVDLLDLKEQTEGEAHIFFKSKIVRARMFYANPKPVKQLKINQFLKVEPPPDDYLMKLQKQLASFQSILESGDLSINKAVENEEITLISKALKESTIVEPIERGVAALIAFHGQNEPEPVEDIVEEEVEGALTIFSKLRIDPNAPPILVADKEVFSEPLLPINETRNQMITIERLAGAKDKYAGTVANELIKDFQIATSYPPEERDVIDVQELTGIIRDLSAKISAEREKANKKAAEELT
As to the kind of experiment: affinity purification with mass spectrometry. The conditions noted are these: partners not purified.

B1: DotN (natural protein)
chain: MNVNQTMADNQQRCELKLIASPGSWRLYSARKIDERFKSYEQKIFQRDRYTCQFCGFQARLYQDIVNLDGDYTNNRLSNLVTACCFCAQCFFVESVGVGGYGGGTLIYLPELTQAELNSLCHVLFCAITNDTGYKSSAQNIYRSFKFRSQIVEEKFGEGTSDPAIFGQLMIDSGVNSEEIREKLFKNIRLLPSRAKFRKQIEKWAASALEEIAD
For the molecule B1, the binding result (with DotY; with DotZ; in assay [1]) was “binds” throughout.
For the molecule B2, the binding result in assay [1] is given as “binds”.
For B3, the binding result with DotZ is “binds”.

These data come from PMC7280309 (Nature Communications, 2020).
